Reference: patent US7109015B2, “Removal of N-terminal methionine from proteins by engineered methionine aminopeptidase” (Academia Sinica, priority 2004, dated 2006)
Where two headings read alike, the source gives them in different places. Marks after values point to notes of the source that are not given here.

Legend:
RC-RNase4 = assay: In vivo Met removal, co-expression in E. coli, RC-RNase 4 substrate; type: cell-based, Rana catesbeiana; settings: solubility −
synthetic oligopeptides = type: biochemical; settings: for Specific activity (unit/mg): 4 mM oligopeptide, pH 7.5, 37° C.
Description: The oligopeptide substrates used in this experiment were synthesized on the 432A Synergy peptide synthesizer (Applied Biosystems, Foster, Calif., USA). The enzymatic activity of purified MetAP was assayed as described by Ben-Bassat et al., 1987. Briefly, the diluted MetAP enzyme in 10 μl was added to 90 μl of the substrate solution containing 4 mM oligopeptide, 0.1 M potassium phosphate buffer, pH 7.5 and 0.2 mM CoCl2, incubated at 37° C. for 10 min and stopped in boiling water for 2 min. After addition of 0.9 ml of color development mixture containing 0.2 mg of L-amino acid oxidase, 0.03 mg of horseradish peroxidase and 0.2 mg of o-dianisidine in 0.1 M Tris-HCl, pH 7.4, the mixtures were incubated for 10 min at 37° C., and the optical density at 440 nm was recorded. One unit of activity is defined as 1 μmol of amino acids produced per min under the assay conditions and the pure Met was used as standard. The N-terminal residues of the MetAP-treated oligopeptide were further verified by Edman degradation.

RC-RNase3 = RC-RNase3 (Escherichia coli, UniProt P0AE18, M206T/Q233G); settings: substrate MQDWE (SEQ ID NO:11)-RC3; solubility −
Text: (§1) The rpr (AF332139) gene encoding for the target protein, onconase, from Rana pipiens was tagged with NdeI and BamHI site at the 5′ and 3′ end, respectively, and inserted downstream of T7 promoter in the expression vector pET22b (Novagen) (Liao et al., 2003; Huang et al., 1998; Liao et al., 2000). The other target proteins were also cloned by the same method, including RC-RNase L1 (AF288642.2), RC-RNase 2 (AF242553), RC-RNase 3 (AF242554), RC-RNase 4 (AF242555), RC-RNase6 (AF242556) from Rana catesbeiana, CA150 (a transcription elongation regulator 1; NM_006706) and glutathione S-transferase (M14654).
(§2) The Escherichia coli methionine aminopeptidase gene (Accession Number M 15106) or its mutant was fused with the T7 promoter by three steps of PCR and inserted into the same pET22b vector containing a target protein, as described above, through SacI and HindIII. […] The second PCR was performed using the PCR product from step 1 as 5′ megaprimer, oligonucleotide 3 (5′[…]3′; SEQ ID NO:4) as 3′ primer, and the E. coli MetAP gene (M15101) as template (Huang et al., 1998; Ben-Bassat et al., 1987). The third PCR was to amplify the second PCR product using oligonucleotide 1 and oligonucleotide 3 as primers. The genes encoding the target protein and E. coli MetAP have their own T7 RNA polymerase promoter, but they may be transcribed into the same RNA molecule for cotranslation because only one transcription terminator exists, downstream of the MetAP gene. Alternatively, the MetAP gene alone may be directly subcloned into vector pET29b through the SacI and HindIII site.
(§3) The MetAP was expressed alone or co-expressed with a target protein, i.e., onconase and RC-RNaseL1, in E. coli BL21 (DE3) in the presence of 0.5 mM IPTG at 37° C.
(§4) Proteins in the cell pellet or in the soluble fraction were separated by 13.3% SDS-PAGE and contact-transferred to ProBlott™ membrane (Applied Bioystems) in transfer buffer (10 mM Tris-HCl, pH 7.5, 50 mM NaCl, 2 mM EDTA, 0.5 mM 2-mercaptoethanol) overnight. The five N-terminal residues of the transferred protein were determined by Edman degradation. The percentage of Met removal was calculated by dividing the amount of proteins initiated with the penultimate residue with the amount of total proteins (including proteins initiated with the penultimate residue and unprocessed protein initiated with Met) after the first degradation cycle. In theory, this percentage should remain the same after each degradation cycle. Therefore, in order to avoid experimental variation, the same calculation was made from five consecutive degradation cycles, e.g., M, Q, N, W and L for onconase. The efficiency of Met removal is reported as the mean values of at least three cycles. The mass spectrum analysis was carried out as described previously (Liao et al., 2003).

RC-RNase6 = RC-RNase6 (Escherichia coli, UniProt P0AE18, M206T/Q233G); settings: substrate MQDWD (SEQ ID NO:12)-RC6; solubility −
Text: as §1, §2, §3, §4

[1] = molecular target: glutathione S-transferase (GST) (Escherichia coli, UniProt P0AE18, M206T/Q233G); settings: substrate MQDIL (SEQ ID NO:21)-GST
Text: as §1, §2, §3, §4

RC-RNase2 = RC-RNase2 (Escherichia coli, UniProt P0AE18, M206T/Q233G); settings: substrate MQNEW (SEQ ID NO:17)-RC2; solubility −
Text: as §1, §2, §3, §4

RC-RNaseL1 = RC-RNaseL1 (Escherichia coli, UniProt P0AE18, M206T/Q233G); settings: solubility −
Text: as §1, §2, §3, §4

[2] = molecular target: CA150, a transcription elongation regulator 1 (Escherichia coli, UniProt P0AE18, M206T/Q233G); settings: substrate MLAGA (SEQ ID NO:20)-CA150; solubility +
Text: as §1, §2, §3, §4

[3] = substrate MAAWA (SEQ ID NO:15)-RC4
[4] = substrate MAPWA (SEQ ID NO:16)-RC4
[5] = substrate MQAWA (SEQ ID NO:14)-RC4
[6] = substrate MQNWA (SEQ ID NO:18)-RCL1

B1: MetAP-*TG (protein)
chain: AISIKTPEDIEKMRVAGRLAAEVLEMIEPYVKPGVSTGELDRICNDYIVNEQHAVSACLGYHGYPKSVCISINEVVCHGIPDDAKLLKDGDIVNIDVTVIKDGFHGDTSKMFIVGKPTIMGERLCRITQESLYLALRMVKPGINLREIGAAIQKFVEAEGFSVVREYCGHGIGRGFHEEPQVLHYDSRETNVVLKPGMTFTIEPTVNAGKKEIRTMKDGWTVKTKDRSLSAGYEHTIVVTDNGCEILTLRKDDTIPAIISHDE
- Catalytic activity (%): percent of penultimate residue removed (RC-RNase4; [3]): 18%
- Catalytic activity (%): removal of N-terminal Met (RC-RNase4; [3]): 100%
- Catalytic activity (%): percent of penultimate residue removed (RC-RNase4; [4]): 63%
- Catalytic activity (%): removal of N-terminal Met (RC-RNase4; [4]): 79%
- Catalytic activity (%): percent of penultimate residue removed (RC-RNase4; [5]): 100 (100)^c %
- Catalytic activity (%): removal of N-terminal Met (RC-RNase4; [5]): 100 (100)^c %
- Catalytic activity (%): removal of N-terminal Met (RC-RNase4; substrate MQDWA (SEQ ID NO:13)-RC4): 93%
- In vitro catalytic activity (synthetic oligopeptides; oligopeptides ranging from tetra- to dodecapeptides with Ala at the penultimate site): high catalytic activity
- Specific activity (unit/mg) (synthetic oligopeptides; substrate MADY (SEQ ID NO:7)): 72 ± 10 unit/mg
- Specific activity (unit/mg) (synthetic oligopeptides; substrate MADYLT (SEQ ID NO:8)): 116 ± 4 unit/mg
- Specific activity (unit/mg) (synthetic oligopeptides; substrate MQDYLT (SEQ ID NO:9)): 0.42 ± 0.02 unit/mg
- Specific activity (unit/mg) (synthetic oligopeptides; substrate […] (SEQ ID NO:5)): 73 ± 15 unit/mg
- Specific activity (unit/mg) (synthetic oligopeptides; substrate […] (SEQ ID NO:6)): 0.59 ± 0.07 unit/mg
- Catalytic activity (%): removal of N-terminal Met (RC-RNase3): 96%
- Catalytic activity (%): removal of N-terminal Met (RC-RNase6): 82%
- Catalytic activity (%): removal of N-terminal Met ([1]; solubility +, same vector): 87%
- Catalytic activity (%): removal of N-terminal Met ([1]; solubility +, target in pET22b co-transformed with MetAP in pET29b): 71%
- Catalytic activity (%): removal of N-terminal Met ([1]; solubility −, same vector): 85%
- Catalytic activity (%): removal of N-terminal Met ([1]; solubility −, target in pET22b co-transformed with MetAP in pET29b): 70%
- Catalytic activity (%): percent of penultimate residue removed (RC-RNase2): 56%
- Catalytic activity (%): removal of N-terminal Met (RC-RNase2): 80%
- Catalytic activity (%): removal of N-terminal Met (RC-RNaseL1; substrate MQDWA (SEQ ID NO:19)-RCL1): 99%
- Catalytic activity (%): percent of penultimate residue removed (RC-RNaseL1; [6]): 62%
- Catalytic activity (%): removal of N-terminal Met (RC-RNaseL1; [6]): 96%
- Catalytic activity (%): percent of penultimate residue removed [2]: 71%
- Catalytic activity (%): removal of N-terminal Met [2]: 100%
